Source: paper PMC7954794, “Protein context shapes the specificity of SH3 domain-mediated interactions in vivo” (Nature Communications, 2021)

B1: BBC1: yeast SH3-containing protein; SH3-deleted or knockout strain (protein, UniProt P47068 1-1157, looked up)
Myosin tail …: MSEPEVPFKVVAQFPYKSDYEDDLNFEKDQEIIVTSVEDAEWYFGEYQDSNGDVIEGIFPKSFVAVQGSEVGKEAESSPNTGSTEQRTIQPEVEQKDLPEPISPETKKETLSGPVPVPAATVPVPAATVPVPAATAVSAQVQHDSSSGNGERKVPMDSPKLKARLSMFNQDITEQVPLPKSTHLDLENIPVKKTIVADAPKYYVPPGIPTNDTSNLERKKSLKENEKKIVPEPINRAQVESGRIETENDQLKKDLPQMSLKERIALLQEQQRLQAAREEELLRKKAKLEQEHERSAVNKNEPYTETEEAEENEKTEPKPEFTPETEHNEEPQMELLAHKEITKTSREADEGTNDIEKEQFLDEYTKENQKVEESQADEARGENVAEESEIGYGHEDREGDNDEEKEEEDSEENRRAALRERMAKLSGASRFGAPVGFNPFGMASGVGNKPSEEPKKKQHKEKEEEEPEQLQELPRAIPVMPFVDPSSNPFFRKSNLSEKNQPTETKTLDPHATTEHEQKQEHGTHAYHNLAAVDNAHPEYSDHDSDEDTDDHEFEDANDGLRKHSMVEQAFQIGNNESENVNSGEKIYPQEPPISHRTAEVSHDIENSSQNTTGNVLPVSSPQTRVARNGSINSLTKSISGENRRKSINEYHDTVSTNSSALTETAQDISMAAPAAPVLSKVSHPEDKVPPHPVPSAPSAPPVPSAPSVPSAPPVPPAPPALSAPSVPPVPPVPPVSSAPPALSAPSIPPVPPTPPAPPAPPAPLALPKHNEVEEHVKSSAPLPPVSEEYHPMPNTAPPLPRAPPVPPATFEFDSEPTATHSHTAPSPPPHQNVTASTPSMMSTQQRVPTSVLSGAEKESRTLPPHVPSLTNRPVDSFHESDTTPKVASIRRSTTHDVGEISNNVKIEFNAQERWWINKSAPPAISNLKLNFLMEIDDHFISKRLHQKWVVRDFYFLFENYSQLRFSLTFNSTSPEKTVTTLQERFPSPVETQSARILDEYAQRFNAKVVEKSHSLINSHIGAKNFVSQIVSEFKDEVIQPIGARTFGATILSYKPEEGIEQLMKSLQKIKPGDILVIRKAKFEAHKKIGKNEIINVGMDSAAPYSSVVTDYDFTKNKFRVIENHEGKIIQNSYKLSHMKSGKLKVFRIVARGYVGW
B2: ABP1: yeast SH3-containing protein; SH3-deleted (D) or gene-deleted (KO) strain (protein, UniProt P15891 2-592, looked up)
Actin-binding protein: ALEPIDYTTHSREIDAEYLKIVRGSDPDTTWLIISPNAKKEYEPESTGSSFHDFLQLFDETKVQYGLARVSPPGSDVEKIIIIGWCPDSAPLKTRASFAANFAAVANNLFKGYHVQVTARDEDDLDENELLMKISNAAGARYSIQTSSKQQGKASTPPVKKSFTPSKSPAPVSKKEPVKTPSPAPAAKISSRVNDNNDDDDWNEPELKERDFDQAPLKPNQSSYKPIGKIDLQKVIAEEKAKEDPRLVQKPTAAGSKIDPSSDIANLKNESKLKRDSEFNSFLGTTKPPSMTESSLKNDDDKVIKGFRNEKSPAQLWAERKAKQNSGNAETKAEAPKPEVPEDEPEGEPDVKDLKSKFEGLAASEKEEEEMENKFAPPPKKSEPTIISPKPFSKPQEPVKAEEAEQPKTDYKKIGNPLPGMHIEADNEEEPEENDDDWDDDEDEAAQPPLPSRNVASGAPVQKEEPEQEEIAPSLPSRNSIPAPKQEEAPEQAPEEEIEEEAEEAAPQLPSRSSAAPPPPPRRATPEKKPKENPWATAEYDYDAAEDNELTFVENDKIINIEFVDDDWWLGELEKDGSKGLFPSNYVSLGN

Test system: Abp1 PPIs
Assay: DHFR-PCA of Abp1 SH3-swapped baits (Fig. 2B-D, S2C, S2F);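 as to Protein-protein interaction distance between Abp1 SH3-swapped baits, to ABP1: Euclidean distance between DHFR-PCA score profiles of the baits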;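 as to Protein-protein interaction distance between Abp1 SH3-swapped baits, to BEM1-2: Euclidean distance between DHFR-PCA score profiles of the baits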;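 as to Protein-protein interaction distance between Abp1 SH3-swapped baits, to BOI1: Euclidean distance between DHFR-PCA score profiles of the baits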;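 as to Protein-protein interaction distance between Abp1 SH3-swapped baits, to BZZ1-1: Euclidean distance between DHFR-PCA score profiles of the baits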
Type: cell-based, Saccharomyces cerevisiae
Conditions: for Protein-protein interaction distance between Abp1 SH3-swapped baits, to ABP1: Abp1 bait with swapped SH3, distance to bait with ABP1 SH3; for Protein-protein interaction distance between Abp1 SH3-swapped baits, to BBC1: distance to Abp1 bait with BBC1 SH3; for Protein-protein interaction distance between Abp1 SH3-swapped baits, to BEM1-1: distance to Abp1 bait with BEM1-1 SH3; for Protein-protein interaction distance between Abp1 SH3-swapped baits, to BEM1-2: distance to Abp1 bait with BEM1-2 SH3; for Protein-protein interaction distance between Abp1 SH3-swapped baits, to BOI1: distance to Abp1 bait with BOI1 SH3; for Protein-protein interaction distance between Abp1 SH3-swapped baits, to BOI2: distance to Abp1 bait with BOI2 SH3; for Protein-protein interaction distance between Abp1 SH3-swapped baits, to BUD14: distance to Abp1 bait with BUD14 SH3; for Protein-protein interaction distance between Abp1 SH3-swapped baits, to BZZ1-1: distance to Abp1 bait with BZZ1-1 SH3; for Protein-protein interaction distance between Abp1 SH3-swapped baits, to BZZ1-2: distance to Abp1 bait with BZZ1-2 SH3; for Protein-protein interaction distance between Abp1 SH3-swapped baits, to CDC25: distance to Abp1 bait with CDC25 SH3; for Protein-protein interaction distance between Abp1 SH3-swapped baits, to CTTN: distance to Abp1 bait with CTTN SH3; for Protein-protein interaction distance between Abp1 SH3-swapped baits, to CYK3: distance to Abp1 bait with CYK3 SH3; for Protein-protein interaction distance between Abp1 SH3-swapped baits, to DBNL: distance to Abp1 bait with DBNL SH3; for Protein-protein interaction distance between Abp1 SH3-swapped baits, to FUS1: distance to Abp1 bait with FUS1 SH3; for Protein-protein interaction distance between Abp1 SH3-swapped baits, to HCLS1: distance to Abp1 bait with HCLS1 SH3; for Protein-protein interaction distance between Abp1 SH3-swapped baits, to HOF1: distance to Abp1 bait with HOF1 SH3; for Protein-protein interaction distance between Abp1 SH3-swapped baits, to HSE1: distance to Abp1 bait with HSE1 SH3; for Protein-protein interaction distance between Abp1 SH3-swapped baits, to LSB1: distance to Abp1 bait with LSB1 SH3; for Protein-protein interaction distance between Abp1 SH3-swapped baits, to LSB3: distance to Abp1 bait with LSB3 SH3; for Protein-protein interaction distance between Abp1 SH3-swapped baits, to MYO3: distance to Abp1 bait with MYO3 SH3; for Protein-protein interaction distance between Abp1 SH3-swapped baits, to MYO5: distance to Abp1 bait with MYO5 SH3; for Protein-protein interaction distance between Abp1 SH3-swapped baits, to NBP2: distance to Abp1 bait with NBP2 SH3; for Protein-protein interaction distance between Abp1 SH3-swapped baits, to PEX13: distance to Abp1 bait with PEX13 SH3; for Protein-protein interaction distance between Abp1 SH3-swapped baits, to PIN3: distance to Abp1 bait with PIN3 SH3; for Protein-protein interaction distance between Abp1 SH3-swapped baits, to RVS167: distance to Abp1 bait with RVS167 SH3; for Protein-protein interaction distance between Abp1 SH3-swapped baits, to SDC25: distance to Abp1 bait with SDC25 SH3; for Protein-protein interaction distance between Abp1 SH3-swapped baits, to SLA1-1: distance to Abp1 bait with SLA1-1 SH3; for Protein-protein interaction distance between Abp1 SH3-swapped baits, to SLA1-2: distance to Abp1 bait with SLA1-2 SH3; for Protein-protein interaction distance between Abp1 SH3-swapped baits, to SLA1-3: distance to Abp1 bait with SLA1-3 SH3; for Protein-protein interaction distance between Abp1 SH3-swapped baits, to YSC84: distance to Abp1 bait with YSC84 SH3
How it was run: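 Interactions were scored by DHFR protein-fragment complementation. DHFR F[1,2]-tagged Abp1 strains, whose SH3 was swapped for yeast or human ortholog domains, were crossed on YPD at 30 °C for 48 h with a 1536-format array of 575 prey-DHFR F[3] strains and 40 negatives, giving four replicates per pair. PCA selection lasted 4 days after double diploid selection.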

[1] = number of PPIs, difference, Abp1 SH3-swapped with the listed SH3, Fig2D,S2F

Molecule	Protein-protein interaction distance between Abp1 SH3-swapped baits, to ABP1 (sheet Fig2C)	Protein-protein interaction distance between Abp1 SH3-swapped baits, to BBC1 (sheet Fig2C)	Protein-protein interaction distance between Abp1 SH3-swapped baits, to BEM1-1 (sheet Fig2C)	Protein-protein interaction distance between Abp1 SH3-swapped baits, to BEM1-2 (sheet Fig2C)	Protein-protein interaction distance between Abp1 SH3-swapped baits, to BOI1 (sheet Fig2C)	Protein-protein interaction distance between Abp1 SH3-swapped baits, to BOI2 (sheet Fig2C)	Protein-protein interaction distance between Abp1 SH3-swapped baits, to BUD14 (sheet Fig2C)	Protein-protein interaction distance between Abp1 SH3-swapped baits, to BZZ1-1 (sheet Fig2C)	Protein-protein interaction distance between Abp1 SH3-swapped baits, to BZZ1-2 (sheet Fig2C)	Protein-protein interaction distance between Abp1 SH3-swapped baits, to CDC25 (sheet Fig2C)	Protein-protein interaction distance between Abp1 SH3-swapped baits, to CTTN (sheet Fig2C)	Protein-protein interaction distance between Abp1 SH3-swapped baits, to CYK3 (sheet Fig2C)	Protein-protein interaction distance between Abp1 SH3-swapped baits, to DBNL (sheet Fig2C)	Protein-protein interaction distance between Abp1 SH3-swapped baits, to FUS1 (sheet Fig2C)	Protein-protein interaction distance between Abp1 SH3-swapped baits, to HCLS1 (sheet Fig2C)	Protein-protein interaction distance between Abp1 SH3-swapped baits, to HOF1 (sheet Fig2C)	Protein-protein interaction distance between Abp1 SH3-swapped baits, to HSE1 (sheet Fig2C)	Protein-protein interaction distance between Abp1 SH3-swapped baits, to LSB1 (sheet Fig2C)	Protein-protein interaction distance between Abp1 SH3-swapped baits, to LSB3 (sheet Fig2C)	Protein-protein interaction distance between Abp1 SH3-swapped baits, to MYO3 (sheet Fig2C)	also measured
B1	7.08	0.00	12.07	30.95	9.448	12.67	15.23	7.773	9.168	24.45	6.802	25.11	7.329	16.64	6.39	29.63	7.295	13.47	13.63	13.06	Protein-protein interaction distance between Abp1 SH3-swapped baits, to MYO5 (sheet Fig2C): 12.56; Protein-protein interaction distance between Abp1 SH3-swapped baits, to NBP2 (sheet Fig2C): 14.24; Protein-protein interaction distance between Abp1 SH3-swapped baits, to PEX13 (sheet Fig2C): 10.86; Protein-protein interaction distance between Abp1 SH3-swapped baits, to PIN3 (sheet Fig2C): 11.25; Protein-protein interaction distance between Abp1 SH3-swapped baits, to RVS167 (sheet Fig2C): 9.304; Protein-protein interaction distance between Abp1 SH3-swapped baits, to SDC25 (sheet Fig2C): 31.85; Protein-protein interaction distance between Abp1 SH3-swapped baits, to SLA1-1 (sheet Fig2C): 27.19; Protein-protein interaction distance between Abp1 SH3-swapped baits, to SLA1-2 (sheet Fig2C): 16.91; Protein-protein interaction distance between Abp1 SH3-swapped baits, to SLA1-3 (sheet Fig2C): 13.32; Protein-protein interaction distance between Abp1 SH3-swapped baits, to YSC84 (sheet Fig2C): 14.14; PPIs gained by Abp1 - SH3-dependent PPIs gained by Abp1 [1]: 2; SH3-dependent PPIs - SH3-dependent PPIs gained by Abp1 [1]: 19; SH3-dependent PPIs gained by Abp1 (number of PPIs, Abp1 SH3-swapped with the listed SH3, DHFR-PCA, Fig2D,S2F): 0; Interactions in Abp1 (number of interactions of Abp1 carrying the named SH3, sheet FigS2A-B): 78
B2	0.00	7.08	14.06	32.3	11.59	14.52	17.23	9.504	10.54	26.13	9.394	26.78	8.805	18.44	7.682	30.98	9.43	13.24	13.53	12.85	Protein-protein interaction distance between Abp1 SH3-swapped baits, to MYO5 (sheet Fig2C): 12.37; Protein-protein interaction distance between Abp1 SH3-swapped baits, to NBP2 (sheet Fig2C): 16.16; Protein-protein interaction distance between Abp1 SH3-swapped baits, to PEX13 (sheet Fig2C): 10.96; Protein-protein interaction distance between Abp1 SH3-swapped baits, to PIN3 (sheet Fig2C): 11.43; Protein-protein interaction distance between Abp1 SH3-swapped baits, to RVS167 (sheet Fig2C): 9.548; Protein-protein interaction distance between Abp1 SH3-swapped baits, to SDC25 (sheet Fig2C): 33.14; Protein-protein interaction distance between Abp1 SH3-swapped baits, to SHO1 (distance to Abp1 bait with SHO1 SH3, sheet Fig2C): 8.989; Protein-protein interaction distance between Abp1 SH3-swapped baits, to SLA1-1 (sheet Fig2C): 28.73; Protein-protein interaction distance between Abp1 SH3-swapped baits, to SLA1-2 (sheet Fig2C): 19.01; Protein-protein interaction distance between Abp1 SH3-swapped baits, to SLA1-3 (sheet Fig2C): 13.16; Protein-protein interaction distance between Abp1 SH3-swapped baits, to YSC84 (sheet Fig2C): 13.97
